B1: 053054 single-chain variable fragment (scFv, V domains shown)
VH: QVQLQESGPGLVKPSQTLSLTCNVSGDSINSGDYYWIWIRQPPGKGLEWIGNIYYSGTAYYNPSLKTRLIISIDTSTNQFSLKVTSVTAADTAIYYCARASTTVVSPWLDPWGQGTLVTVSS
VL: SYELTQPSSVAVAPGQTARIPCGGDNIESKGVHWYQQKPGQAPVLVVYDDHDRPSGIPERFSGSNSGNTATLTVSRVEAGDEADYYCQVWDTSSEHPVFGGGTKLTVL
B2: human monoclonal antibody 053054 (full-length IgG1) (antibody, V domains shown)
VH: QVQLQESGPGLVKPSQTLSLTCNVSGDSINSGDYYWIWIRQPPGKGLEWIGNIYYSGTAYYNPSLKTRLIISIDTSTNQFSLKVTSVTAADTAIYYCARASTTVVSPWLDPWGQGTLVTVSS
VL: SYELTQPSSVAVAPGQTARIPCGGDNIESKGVHWYQQKPGQAPVLVVYDDHDRPSGIPERFSGSNSGNTATLTVSRVEAGDEADYYCQVWDTSSEHPVFGGGTKLTVL
B3: 092096 single-chain variable fragment (scFv, V domains shown)
VH: QVQLVQSGAEVKKPGASVKVSCKVSGYTLTELSMHWVRQAPGKGLEWMGGFDREDGESIYAQKFQGRVTLTEDTSTDSVYMELSNLRSDDTAVYFCATDFGGSYFYAFDIWGQGTMVTVSS
VL: not shown
B4: human monoclonal antibody 092096 (full-length IgG1) (antibody, V domains shown)
VH: QVQLVQSGAEVKKPGASVKVSCKVSGYTLTELSMHWVRQAPGKGLEWMGGFDREDGESIYAQKFQGRVTLTEDTSTDSVYMELSNLRSDDTAVYFCATDFGGSYFYAFDIWGQGTMVTVSS
VL: not shown

How the values were obtained:
[1] = biological target: T1, biotinylated BirA-tagged Sal-1 DBP-II (Plasmodium vivax, UniProt P22290, biotin (added with BirA ligase on the BirA tag)); test: BLI
T1 sequence (P22290 211-525): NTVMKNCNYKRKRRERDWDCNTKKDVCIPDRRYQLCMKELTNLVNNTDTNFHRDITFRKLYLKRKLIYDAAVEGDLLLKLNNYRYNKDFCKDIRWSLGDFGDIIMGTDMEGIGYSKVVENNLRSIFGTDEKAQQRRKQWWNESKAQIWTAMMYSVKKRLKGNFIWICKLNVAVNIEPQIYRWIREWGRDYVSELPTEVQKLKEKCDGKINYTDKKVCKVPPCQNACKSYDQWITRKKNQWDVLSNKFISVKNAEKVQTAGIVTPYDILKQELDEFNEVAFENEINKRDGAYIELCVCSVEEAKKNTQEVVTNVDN

[2] = biological target: T1, biotinylated BirA-tagged Sal-1 DBP-II; test: flow cytometry on cells

| Binder | Kd [1] | IC50 [2] |
| --- | --- | --- |
| B1 | 7.44 ± 0.36 nM |  |
| B2 |  | 4.88 ± 1.06 nM |
| B3 | 7.63 ± 0.29 nM |  |
| B4 |  | 1.63 ± 1.07 nM |

Reference: paper PMC6707876 (Nature microbiology, 2019)
